Test results taken from US20260250737A1, “Engineered Luciferases and Luciferin Substrates” (Monod Bio, Inc., priority 2023, published 2026).
Where a chain is given by its changes, count along the chain named. Names may count otherwise.

B1: LgLux_4039: Large Lux fragment of MBIO-4039 (protein)
chain: MSEEQIRQNLRRFYEALDSGDAITAASLFDPGVTITLWDGTTFTSVEEFREWFESQFSTSKDALREISSLEVRGDTVEVTVRLSFTRNGQKHTVDLLQLFKFV
B2: MBIO-158: LuxSit-i variant W100F (protein)
chain: MSEEQIRQFLRRFYEALDSGDADTAASLFHPGVTIHLWDGVTFTSREEFREWFERLFSTSKDAQREIKSLEVRGDTVEVHVQLHATHNGQKHTVDLTHHFHFRGNRVTEVRVHINPTG
B3: MBIO-5338: LgLux_4039 variant T41A, H92Q; SEQ ID NO 2800 (protein)
chain: B1 chain with T41A, H92Q
B4: MBIO-5340: LgLux_4039 variant S2T, I6L, R11L, E48K; SEQ ID NO 2804 (protein)
chain: B1 chain with S2T, I6L, R11L, E48K
B5: MBIO-5342: LgLux_4039 variant E54G, S55T, R87S; SEQ ID NO 2802 (protein)
chain: B1 chain with E54G, S55T, R87S
B6: MBIO-5341: LgLux_4039 variant P31S; SEQ ID NO 2803 (protein)
chain: B1 chain with P31S
B7: SEQ ID NO 2805: LgLux_4039 variant S19C (protein)
chain: B1 chain with S19C
B8: MBIO-5339: LgLux_4039 variant R11L, I23V; SEQ ID NO 2801 (protein)
chain: B1 chain with R11L, I23V, S45T
B9: SEQ ID NO 2814: LgLux_4039 EP-PCR mutant E51V, K61T (protein)
chain: B1 chain with E51V, K61T
B10: SEQ ID NO 2807: LgLux_4039 EP-PCR mutant L99Q (protein)
chain: B1 chain with L99Q
B11: SEQ ID NO 2812: LgLux_4039 EP-PCR mutant L64F (protein)
chain: B1 chain with L64F
B12: SEQ ID NO 2806: LgLux_4039 EP-PCR mutant N9S (protein)
chain: B1 chain with N9S
B13: SEQ ID NO 2813: LgLux_4039 EP-PCR mutant T34I (protein)
chain: B1 chain with T34I
B14: SEQ ID NO 2808: LgLux_4039 EP-PCR mutant K101E (protein)
chain: B1 chain with K101E
B15: SEQ ID NO 2811: LgLux_4039 EP-PCR mutant N9I, N88D (protein)
chain: B1 chain with N9I, N88D
B16: SEQ ID NO 2810: LgLux_4039 EP-PCR mutant F43L (protein)
chain: B1 chain with F43L
B17: SEQ ID NO 2809: LgLux_4039 EP-PCR mutant N9D, V103I (protein)
chain: B1 chain with N9D, V103I

system: SmLux; assay: Computationally generated LgLux variants expressed in E. coli, tested in lysates with SmLux and substrate 1c; format: biochemical; conditions: 20 uM SmLux, 50 uM substrate 1c
How it was run: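 Variants expressed in E. coli and screened as lysates, complemented with 20 uM SmLux and given 50 uM substrate 1c; luminescent activity measured.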

Question: Which “Fold change upon SmLux peptide addition” value does the source give for B1 here?
Answer: The value was 214.43.

same assay, conditions: 50 uM substrate 1c, before SmLux peptide addition

Question: Which “Baseline Signal (Normalized by expression)” value does the source give for B1 here?
Answer: The value was 299.2.

same assay, conditions: Table 22, 20 uM SmLux, 50 uM substrate 1c

Question: For B1, which “Fold change upon SmLux peptide addition” value is on record?
Answer: Its value is 360.49.

same assay, conditions: Table 22, 50 uM substrate 1c

Question: Which “Baseline Signal (Normalized by expression)” value does the source give for B1 here?
Answer: Its value is 1766.6.

system: not listed separately; assay: Luciferase activity (brightness) of LuxSit-i variants; format: biochemical; conditions: Table 2; single substitutions; relative to LuxSit-i
Experimental: SSM was performed to evaluate the effect of single mutations on the luciferase activity of LuxSit-i. FIG. 3 graphically presents the mutation frequency at the positions found in the SSM as beneficial for increasing luciferase activity.
FIG. 4A provides data for luciferase activity for MBIO-148, MBIO-158 and Luxsit-i. MBIO-148, MBIO-158, and Luxsit-i were serially diluted starting from a final in-well concentration of 10,000 pM. Each dilution was combined with Diphenylterazine (DTZ) to a final in-well concentration of […]. Points shown are from the initial reading once the plate read was started.
FIG. 4B provides data for luciferase activity for MBIO-148, MBIO-301, MBIO-302, and LuxSit-i. MBIO-148, MBIO-301, MBIO-302, and Luxsit-i were serially diluted starting from a final in-well concentration of 500 pM. Each dilution was combined with DTZ to a final in-well concentration of 10 μM. Points shown are from the initial reading once the plate read was started.

Question: Which Brightness improvement does the source give for B2 here?
Answer: Its Brightness improvement is “Slight increase”.

system: construct containing Small Lux (SmLux), Large Lux (LgLux), FKBP and FRB; assay: LuxSit split optimization: SmLux-LgLux-FKBP-FRB construct on the surface of yeast, rapamycin-induced signal; format: biochemical; conditions: Table 19, LgLux variants, 50 uM substrate 1c
Experimental: To optimize the function of the LuxSit Splits, a construct containing Small Lux (SmLux), Large Lux (LgLux) and the proteins that bind the molecule Rapamycin (FKBP and FRB), connected by GS linkers, was expressed on the surface of yeast. When 50 uM of substrate 1c is added to yeast expressing this construct, a baseline signal is observed due to SmLux and LgLux reconstitution. When 20 uM of Rapamycin is added, SmLux and LgLux are brought closer to each other by FKBP and FRB, enhancing their reconstitution. As a result, an increase in signal is observed.
Libraries of SmLux and LgLux were assembled and tested independently to identify variants with lower baseline and higher fold change.

Question: For B3, which “Baseline Signal (Normalized by expression)” value is on record?
Answer: Its value is 18945.1.

Question: For B4, which “Baseline Signal (Normalized by expression)” value is on record?
Answer: Its value is 6666.1.

Question: For B5, which “Baseline Signal (Normalized by expression)” value is on record?
Answer: Its value is 3361.4.

Question: For B6, which “Baseline Signal (Normalized by expression)” value is on record?
Answer: The value was 10433.7.

Question: With B7 as the molecule, how does the “Baseline Signal (Normalized by expression)” value read?
Answer: Its value is 3667.6.

Question: With B8 as the molecule, how does the “Baseline Signal (Normalized by expression)” value read?
Answer: Its value is 28286.

Question: Which “Baseline Signal (Normalized by expression)” value does the source give for B1 here?
Answer: The value was 22064.6.

same assay, conditions: Table 19, LgLux variants, 50 uM substrate 1c, 20 uM Rapamycin

Question: For B3, which “Fold change upon Rap addition” value is on record?
Answer: The value was 2.2.

Question: Which “Fold change upon Rap addition” value does the source give for B4 here?
Answer: Its value is 2.2.

Question: With B5 as the molecule, how does the “Fold change upon Rap addition” value read?
Answer: The value was 2.

Question: Which “Fold change upon Rap addition” value does the source give for B6 here?
Answer: The value was 2.2.

Question: With B7 as the molecule, how does the “Fold change upon Rap addition” value read?
Answer: Its value is 2.

Question: With B8 as the molecule, how does the “Fold change upon Rap addition” value read?
Answer: The value was 1.9.

Question: Which “Fold change upon Rap addition” value does the source give for B1 here?
Answer: The value was 1.9.

system: SmLux; assay: LgLux stability optimization: error-prone PCR LgLux mutants on yeast, protease treatment, SmLux complementation; format: biochemical; conditions: Table 20; EP-PCR LgLux mutants on yeast; 50 uM substrate 1c
Experimental: LgLux mutants were generated by error-prone PCR (EP-PCR) and treated with protease and their activity measured as depicted schematically in FIG. 44.
Yeast expressing a library of the LgLux mutants were incubated with proteases and screened to select variants that were stable enough to resist proteolysis. Functional variants were selected by adding 50 uM of substrate 1c and 200 nM of SmLux.
The nucleotide sequence encoding LgLux_4039 was subjected to EP-PCR to identify protease-stable mutants. The sequences (SEQ ID NOs: 2806-2814) and activity of the mutants are summarized below in Table 20.

Question: Which “Baseline Signal (Normalized by expression)” value does the source give for B9 here?
Answer: The value was 934.2.

Question: Which “Baseline Signal (Normalized by expression)” value does the source give for B10 here?
Answer: Its value is 738.4.

Question: With B11 as the molecule, how does the “Baseline Signal (Normalized by expression)” value read?
Answer: Its value is 233.2.

Question: For B12, which “Baseline Signal (Normalized by expression)” value is on record?
Answer: Its value is 973.7.

Question: With B13 as the molecule, how does the “Baseline Signal (Normalized by expression)” value read?
Answer: Its value is 241.6.

Question: Which “Baseline Signal (Normalized by expression)” value does the source give for B14 here?
Answer: The value was 228.3.

Question: Which “Baseline Signal (Normalized by expression)” value does the source give for B1 here?
Answer: Its value is 417.8.

Question: Which “Baseline Signal (Normalized by expression)” value does the source give for B15 here?
Answer: Its value is 232.7.

Question: With B16 as the molecule, how does the “Baseline Signal (Normalized by expression)” value read?
Answer: The value was 327.2.

Question: For B17, which “Baseline Signal (Normalized by expression)” value is on record?
Answer: Its value is 638.6.

same assay, conditions: Table 20; EP-PCR LgLux mutants on yeast; 50 uM substrate 1c, 200 nM SmLux

Question: Which “Fold change upon SmLux peptide addition” value does the source give for B9 here?
Answer: Its value is 53.1.

Question: Which “Fold change upon SmLux peptide addition” value does the source give for B10 here?
Answer: Its value is 83.3.

Question: Which “Fold change upon SmLux peptide addition” value does the source give for B11 here?
Answer: Its value is 61.7.

Question: For B12, which “Fold change upon SmLux peptide addition” value is on record?
Answer: Its value is 126.7.

Question: Which “Fold change upon SmLux peptide addition” value does the source give for B13 here?
Answer: The value was 52.

Question: Which “Fold change upon SmLux peptide addition” value does the source give for B14 here?
Answer: Its value is 86.8.

Question: With B1 as the molecule, how does the “Fold change upon SmLux peptide addition” value read?
Answer: Its value is 78.5.

Question: With B15 as the molecule, how does the “Fold change upon SmLux peptide addition” value read?
Answer: The value was 55.5.

Question: With B16 as the molecule, how does the “Fold change upon SmLux peptide addition” value read?
Answer: Its value is 81.7.

Question: For B17, which “Fold change upon SmLux peptide addition” value is on record?
Answer: Its value is 170.

system: not listed separately; assay: Stability of LuxSit-i variants (yeast display protease resistance, static light scattering); format: physicochemical; conditions: Table 2; single substitutions; relative to LuxSit-i
Experimental: In certain aspects, these polypeptides have improved stability at high temperatures as compared to LuxSit-i. For example, these polypeptides are stable at higher temperatures as compared to LuxSit-i. Stability may be measured by enzymatic activity and/or protein misfolding measured over a period of time. In certain embodiments, stability may be measured using static light scattering (SLS).
A single saturation mutagenesis (SSM) was performed to evaluate by yeast display the effect of single mutations in the stability of LuxSit-i (SEQ ID NO:1). The SSM library was transformed into electrocompetent cells of the strain EBY100. Twenty million cells were labeled with anti-myc FITC antibody in order to detect protein expression on the yeast surface by measuring fluorescence emission. Cells were sorted using a Sony SH800 cell sorter and those showing protein expression (FITC signal) were collected and grown. DNA was extracted from the sorted cells using conventional DNA extraction conventional methods. The DNA library was sequenced using Nanopore technology. Single amino acid substitutions that increase protein stability are enriched after sorting.
(§1) Single saturation mutagenesis (SSM) was performed to evaluate (by yeast display) the effect of single mutations in the stability of LuxSit-i-i. The SSM library was transformed into electrocompetent cells of the strain EBY100. Twenty million cells were labeled with an anti-myc FITC antibody to detect protein expression on the yeast surface by measuring the emission of fluorescence by FITC. Yeast were incubated with a mixture of 3.5 uM trypsin and 1.4 uM chymotrypsin (1/729 dilution of the stock solution) at 25° C. for 15 min. Cells were sorted using a Sony SH800 cell sorter and those showing protein expression (FITC signal) after protease incubation were collected and grown. DNA was extracted from the sorted cells using conventional DNA extraction conventional methods. The DNA library was sequenced using Nanopore technology. Single amino acid substitutions that increase protein stability are enriched after sorting.
as §1, with “LuxSit-i.” for “LuxSit-i-i.”, “antibody in order” for “antibody”, “10” for “3.5”, “4” for “1.4”, “(1/243” for “(1/729”
as §1, with “LuxSit-i.” for “LuxSit-i-i.”, “antibody in order” for “antibody”, “15” for “3.5”, “6” for “1.4”, “(1/162” for “(1/729”, “sorting. […]” for “sorting.”

Question: Which Stability improvement does the source give for B2 here?
Answer: The Stability improvement was “Monomeric”.
